The binders below were run against T1, human epidermal growth factor receptor 2 (HER2) extracellular domain (human, UniProt P04626 23-629) (assay: SPR).

| Binder | Kd [nM] |
| --- | --- |
| AI Design 7 (multi-step AI designed trastuzumab variant, native HCDR1) (Fab, V domains shown, Fab format; also called GFNIKDTY / IDPANGYT / ARVGGRGYYYYDY) VH: EVQLVESGGGLVQPGGSLRLSCAASGFNIKDTYIHWVRQAPGKGLEWVARIDPANGYTRYADSVKGRFTISADTSKNTAYLQMNSLRAEDTAVYYCARVGGRGYYYYDYWGQGTLVTVSS VL: not shown | 134 |
| AI Design 2 (multi-step AI designed trastuzumab HCDR1/2/3 variant) (Fab, V domains shown, Fab format; also called GFNISDYY / IYPSSGYT / ARDGGVGSYSMDV) VH: EVQLVESGGGLVQPGGSLRLSCAASGFNISDYYIHWVRQAPGKGLEWVARIYPSSGYTRYADSVKGRFTISADTSKNTAYLQMNSLRAEDTAVYYCARDGGVGSYSMDVWGQGTLVTVSS VL: not shown | 1320 |
| AI Design 3 (multi-step AI designed trastuzumab HCDR1/2/3 variant) (Fab, V domains shown, Fab format; also called GFNIKDYY / IYPSRGYT / ARHGSEGRYTMDV) VH: EVQLVESGGGLVQPGGSLRLSCAASGFNIKDYYIHWVRQAPGKGLEWVARIYPSRGYTRYADSVKGRFTISADTSKNTAYLQMNSLRAEDTAVYYCARHGSEGRYTMDVWGQGTLVTVSS VL: not shown | 192 |
| AI Design 4 (multi-step AI designed trastuzumab HCDR1/2/3 variant) (Fab, V domains shown, Fab format; also called GFNIKDTW / IDPANGYT / ARVGGRGYYYYDY) VH: EVQLVESGGGLVQPGGSLRLSCAASGFNIKDTWIHWVRQAPGKGLEWVARIDPANGYTRYADSVKGRFTISADTSKNTAYLQMNSLRAEDTAVYYCARVGGRGYYYYDYWGQGTLVTVSS VL: not shown | 394 |
| AI Design 5 (multi-step AI designed trastuzumab HCDR1/2/3 variant) (Fab, V domains shown, Fab format; also called GFNFKDTY / IYPANGYT / ASDGGSYSYAFDY) VH: EVQLVESGGGLVQPGGSLRLSCAASGFNFKDTYIHWVRQAPGKGLEWVARIYPANGYTRYADSVKGRFTISADTSKNTAYLQMNSLRAEDTAVYYCASDGGSYSYAFDYWGQGTLVTVSS VL: not shown | 642 |
| AI Design 6 (multi-step AI designed trastuzumab variant, native HCDR1) (Fab, V domains shown, Fab format; also called GFNIKDTY / IDPADGYT / AREGGYGYYAMDY) VH: EVQLVESGGGLVQPGGSLRLSCAASGFNIKDTYIHWVRQAPGKGLEWVARIDPADGYTRYADSVKGRFTISADTSKNTAYLQMNSLRAEDTAVYYCAREGGYGYYAMDYWGQGTLVTVSS VL: not shown | 160 |
| AI Design 8 (multi-step AI designed trastuzumab variant, native HCDR1) (Fab, V domains shown, Fab format; also called GFNIKDTY / IYPSNGYT / ARYGGSYAYYFYY) VH: EVQLVESGGGLVQPGGSLRLSCAASGFNIKDTYIHWVRQAPGKGLEWVARIYPSNGYTRYADSVKGRFTISADTSKNTAYLQMNSLRAEDTAVYYCARYGGSYAYYFYYWGQGTLVTVSS VL: not shown | 18.6 |
| AI Design 9 (multi-step AI designed trastuzumab variant, native HCDR1 and HCDR2) (Fab, V domains shown, Fab format; also called GFNIKDTY / IYPTNGYT / ARYYGSSSYYFAY) VH: EVQLVESGGGLVQPGGSLRLSCAASGFNIKDTYIHWVRQAPGKGLEWVARIYPTNGYTRYADSVKGRFTISADTSKNTAYLQMNSLRAEDTAVYYCARYYGSSSYYFAYWGQGTLVTVSS VL: not shown | 60.6 |
| AI Design 1 (multi-step AI designed trastuzumab HCDR1/2/3 variant) (Fab, V domains shown, Fab format; also called GFNVSSSY / IYPENGST / SRYSYYGGYAFDY) VH: EVQLVESGGGLVQPGGSLRLSCAASGFNVSSSYIHWVRQAPGKGLEWVARIYPENGSTRYADSVKGRFTISADTSKNTAYLQMNSLRAEDTAVYYCSRYSYYGGYAFDYWGQGTLVTVSS VL: not shown | 225 |

What follows are binders tested against T1, human epidermal growth factor receptor … (assay: SPR (Carterra LSA), Fab captured, HER2 ECD as analyte).

| Binder | log10(KD) |
| --- | --- |
| De novo trastuzumab HCDR3 variant ARYDYGYYIYVS (Fab, V domains shown, Fab format) VH: EVQLVESGGGLVQPGGSLRLSCAASGFNIKDTYIHWVRQAPGKGLEWVARIYPTNGYTRYADSVKGRFTISADTSKNTAYLQMNSLRAEDTAVYYCARYDYGYYIYVSWGQGTLVTVSS VL: not shown | -8.02 log10(M) |
| De novo trastuzumab HCDR3 variant ARYYYGFYYFDY (Fab, V domains shown, Fab format) VH: EVQLVESGGGLVQPGGSLRLSCAASGFNIKDTYIHWVRQAPGKGLEWVARIYPTNGYTRYADSVKGRFTISADTSKNTAYLQMNSLRAEDTAVYYCARYYYGFYYFDYWGQGTLVTVSS VL: not shown | -8.92 log10(M) |
| De novo trastuzumab HCDR3 variant TRYFFNGWYYFDV (Fab, V domains shown, Fab format) VH: EVQLVESGGGLVQPGGSLRLSCAASGFNIKDTYIHWVRQAPGKGLEWVARIYPTNGYTRYADSVKGRFTISADTSKNTAYLQMNSLRAEDTAVYYCTRYFFNGWYYFDVWGQGTLVTVSS VL: not shown | -9.03 log10(M) |
| De novo trastuzumab HCDR3 variant ARYAGVERPGSFAY (Fab, V domains shown, Fab format) VH: EVQLVESGGGLVQPGGSLRLSCAASGFNIKDTYIHWVRQAPGKGLEWVARIYPTNGYTRYADSVKGRFTISADTSKNTAYLQMNSLRAEDTAVYYCARYAGVERPGSFAYWGQGTLVTVSS VL: not shown | -6.24 log10(M) |

Source: patent publication US20250218531A1 (ABSCI, published 2025)
